Experimental data reported in article PMC8615638, “Tumor Marker B7-H6 Bound to the Coiled Coil Peptide-Polymer Conjugate Enables Targeted Therapy by Activating Human Natural Killer Cells” (Biomedicines, 2021).
Residue numbers refer to the chain shown, from its start. Names may count otherwise. “And” between values parts separate entries of the source, which are not always exact repeats. Equal entries are not always repeated. Where no end group is shown, it is not given here.

T1: wild-type B7-H6 (extracellular domain of B7-H6 without the coiled coil tag, C212S) (UniProt Q68D85 25-245, C212S)
T1 construct: B7-H6, extracellular domain, residues D25-L245 with stabilizing mutation C212S; cloned as described previously [37]; also called non-modified B7-H6; soluble B7-H6 construct; source: HEK293T (suspension-adapted), transient transfection, secreted, purified (IMAC, SEC)
T1 sequence (looked up): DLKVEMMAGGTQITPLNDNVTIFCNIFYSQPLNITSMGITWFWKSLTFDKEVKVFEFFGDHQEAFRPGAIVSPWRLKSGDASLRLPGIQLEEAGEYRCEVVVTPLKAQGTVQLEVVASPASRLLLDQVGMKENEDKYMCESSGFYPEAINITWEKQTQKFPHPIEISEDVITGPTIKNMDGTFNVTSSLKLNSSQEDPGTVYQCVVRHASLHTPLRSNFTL

T2: high-affinity B7-H6 (haB7-H6; S60Y, F82W, L129Y) (UniProt Q68D85 25-245, C212S | S60Y | F82W | L129Y)
T2 construct: same doubt on the C-terminal limit (L245 or T244); also called untagged haB7-H6; source: HEK293T (suspension-adapted), transient transfection, secreted, purified (IMAC, SEC)
T2 sequence (looked up): T1 sequence (looked up) with S36Y, F58W, L105Y

T3: high-affinity coiled coil B7-H6 (haB7-H6CC; S60Y, F82W, L129Y) (UniProt Q68D85 25-244, C212S | S60Y | F82W | L129Y)
T3 construct: additional N-terminal residues from the vector, as in B7-H6CC; GT and the (VAALKEK)4 coiled coil motif, as in B7-H6CC; C-terminus -GT(VAALKEK)4H8G; source: HEK293T (suspension-adapted), transient transfection, secreted, purified (IMAC, SEC); not shown: His8 (H8G), C-terminal, kept
T3 sequence: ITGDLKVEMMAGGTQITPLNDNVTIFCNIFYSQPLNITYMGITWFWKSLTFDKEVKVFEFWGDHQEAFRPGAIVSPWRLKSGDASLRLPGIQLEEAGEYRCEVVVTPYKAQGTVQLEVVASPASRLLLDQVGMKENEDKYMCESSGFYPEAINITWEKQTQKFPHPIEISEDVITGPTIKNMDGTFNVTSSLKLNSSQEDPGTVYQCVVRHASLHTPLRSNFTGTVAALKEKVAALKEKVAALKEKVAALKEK

B1: coiled coil B7-H6 (B7-H6CC) (ligand)
chain: T3 sequence with Y39S, W61F, Y108L
notes: additional N-terminal residues from the vector; B7-H6, extracellular domain, residues D25-T244 with stabilizing mutation C212S; GT and the (VAALKEK)4 coiled coil motif (peptide K), written out from -GT(VAALKEK)4H8G; C-terminus is -GT(VAALKEK)4H8G: the His8 is followed by a final G. In the flow cytometry the protein was labelled with AlexaFluor647 by NHS chemistry; Six N-glycosylation sites; also …
B2: PolCC+: HPMA copolymer of increased length conjugated with (VAALEKE)4 coiled coil peptides (other)
peptide: VAALEKEVAALEKEVAALEKEVAALEKE
modifications: also: attached to HPMA copolymer via copper-free click chemistry, site not given here
notes: (VAALEKE)4 coiled coil peptide, written out from the printed repeat; 130 kDa conjugate with approximately ten coiled coil peptides on each polymer chain (26% w/w); the polymer also carries biotin; Synthesis details are in File S1; source: synthetic peptide attached to HPMA copolymer (RAFT polymerization, copper-free click chemistry); purified by SEC; copies: 10
B3: NKp30 ligand-binding domain (residues L19-E130, receptor ectodomain without stalk region) (receptor, UniProt O14931 19-130, looked up)
chain: LWVSQPPEIRTLEGSSAFLPCSFNASQGRLAIGSVTWFRDEVVPGKEVRNGTPEFRGRLAPLASSRFLHDHQAELHIRDVRGHDASIYVCRVEVLGLGVGTGNGTRLVVEKE
notes: cloned as described previously [37]; source: HEK293T (suspension-adapted), transient transfection, secreted, purified (IMAC, SEC)
B4: PolCC: pHPMA copolymer conjugated with (VAALEKE)4 coiled coil peptides (other)
peptide: VAALEKEVAALEKEVAALEKEVAALEKE
modifications: also: attached to pHPMA copolymer via azide-alkyne cycloaddition, site not given here
notes: (VAALEKE)4 coiled coil peptide, written out from the printed repeat; 56 kDa conjugate with approximately eight coiled coil peptides on each polymer chain (40% w/w); the polymer also carries biotin; The polymer itself is no protein; also called coiled coil peptide-polymer conjugate; pHPMA-(VAALEKE)4; source: synthetic peptide attached to HPMA copolymer by click chemistry, as described previously …

Columns and labels:
NKp30 (Homo sapiens) = NKp30 (Homo sapiens) (UniProt O14931); test: BLI; conditions: cited from earlier work
[1] = molecular target: the molecule itself; test: AUC; sedimentation velocity of B7-H6CC alone; 20 °C, 48,000 rpm, absorbance 280 nm, SEC buffer; monomer-dimer equilibrium
[2] = molecular target: B1; test: AUC; sedimentation velocity, PolCC+ titrated with B7-H6CC; 20 °C, 42,000 rpm, 280 nm, SEC buffer; conditions: both partners purified
[3] = molecular target: B1; test: AUC; sedimentation velocity, B7-H6CC titrated with NKp30; 20 °C, 48,000 rpm, 280 nm, SEC buffer; sw isotherm fitted with A + B <=> AB; conditions: both partners purified
[4] = molecular target: T1, wild-type B7-H6 (extracellular domain …); test: ITC; NKp30 (124-182 µM) injected into a cell with the B7-H6 variant (15.6-25.0 µM); 25 °C; 10 mM HEPES, 150 mM NaCl, 10 mM NaN3, pH 7.5; fitted as A + B <=> AB, N = 1 - incompetent fraction of B7-H6; conditions: both partners purified
[5] = molecular target: B1; test: as above; conditions: both partners purified
[6] = molecular target: T2, high-affinity B7-H6 (haB7-H6; S60Y, …); test: as above; conditions: both partners purified
[7] = molecular target: T3, high-affinity coiled coil B7-H6 …; test: as above; conditions: both partners purified
[8] = molecular target: B1; test: flow cytometry on cells; PolCC mixed with AlexaFluor647-labelled B7-H6CC and scFvCC (AlexaFluor488-labelled or not); complexes carried to CAIX-expressing cells by scFvCC and B7-H6CC detected on the cells; 45 min on ice, 1 µM polymer; conditions: both partners purified

Molecule: B7-H6 IgV domain (from UniProt Q68D85)
Kd (NKp30 (Homo sapiens)): 409 nM

Molecule: B1
stoichiometry N [1]: 2

Molecule: B2
binding result [2]: binds

Molecule: B3
Kd [3]: 895 nM
stoichiometry N [3]: 0.78 and 1
Kd [4]: 668 nM
dH [4]: -11.5 kcal/mol
stoichiometry N [4]: 0.88
Kd [5]: 787 nM
dH [5]: -11.2 kcal/mol
stoichiometry N [5]: 0.74
Kd [6]: 115 nM
dH [6]: -12.7 kcal/mol
stoichiometry N [6]: 0.91
Kd [7]: 259 nM
dH [7]: -11.8 kcal/mol
stoichiometry N [7]: 0.65

Molecule: B4
binding result [8]: binds
